Assay results taken from patent US20120214173A1, “Methods of Identifying Modulators of an Ehd Polypeptide” (priority 2007, published 2012).
Positions count from the first letter of the chain named. In names and notes the source's numbering stands. Several values for one entry are separate records, joined by “and”; a condition that tells them apart may be missing. Identical values can stand only once. Entries after “also recorded” stand apart in the source; their conditions may differ.

T1: EHD2 (Mus musculus, UniProt Q8BH64)
T1 construct: Mouse EHD2 full-length protein and all mutants were expressed as N-terminal His-fusions followed by a PreScission cleavage site; His (N, cleaved yes); made in house; host or cells: Escherichia coli BL21 DE3 Rosetta
T1 sequence (Q8BH64 1-543): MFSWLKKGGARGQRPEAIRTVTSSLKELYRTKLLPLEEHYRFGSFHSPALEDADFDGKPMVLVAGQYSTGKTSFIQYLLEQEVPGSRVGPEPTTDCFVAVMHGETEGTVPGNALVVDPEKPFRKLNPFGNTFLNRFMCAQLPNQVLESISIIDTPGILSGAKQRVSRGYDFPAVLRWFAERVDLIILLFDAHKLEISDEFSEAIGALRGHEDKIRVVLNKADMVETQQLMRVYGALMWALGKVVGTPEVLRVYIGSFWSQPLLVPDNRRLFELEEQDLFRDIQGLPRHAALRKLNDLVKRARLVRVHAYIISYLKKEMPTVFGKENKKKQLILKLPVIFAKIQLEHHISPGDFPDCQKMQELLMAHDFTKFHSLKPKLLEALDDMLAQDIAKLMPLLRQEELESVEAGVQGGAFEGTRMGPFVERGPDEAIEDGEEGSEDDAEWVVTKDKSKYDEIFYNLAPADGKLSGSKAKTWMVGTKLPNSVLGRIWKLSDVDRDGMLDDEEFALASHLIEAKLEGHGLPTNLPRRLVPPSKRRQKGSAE

B1: EHD2 E91Q (protein)
chain: T1 sequence (Q8BH64 1-543) with E91Q
B2: EHD2 D198R (protein)
chain: T1 sequence (Q8BH64 1-543) with D198R
B3: K327D: EHD2 polybasic cluster mutant (protein, UniProt Q8BH64 1-543, looked up, variant K327D)
EH domain-containing protein 2: T1 sequence (Q8BH64 1-543) with K327D
B4: EHD2 R167E (protein)
chain: T1 sequence (Q8BH64 1-543) with R167E
B5: EHD2 K193D (protein)
chain: T1 sequence (Q8BH64 1-543) with K193D
B6: K329D: EHD2 polybasic cluster mutant (protein, UniProt Q8BH64 1-543, looked up, variant K329D)
EH domain-containing protein 2: T1 sequence (Q8BH64 1-543) with K329D
B7: K324D: EHD2 polybasic cluster mutant (protein, UniProt Q8BH64 1-543, looked up, variant K324D)
EH domain-containing protein 2: T1 sequence (Q8BH64 1-543) with K324D

What was measured:
EHD2 [1] = target: T1, EHD2; test: Multiple turnover ATPase assay (nucleotide hydrolysis by HPLC) with or without Folch liposomes; type: biochemical
Description: (§1) Amino acid numbering corresponds to mouse EHD2. b, EHD2 binds to adenine nucleotides, as determined by ITC. For clarity, ΔΔH=ΔHn−ΔH1 is plotted. […] Images were acquired close to the basal cell surface. f, Nucleotide hydrolysis was measured by HPLC in the absence (empty symbols) or presence of Folch liposomes (filled symbols). Data represent mean and standard deviation for two (intrinisic reactions) or three (stimulated reactions) independent experiments.
(§2) ITC measurements were performed at 10° C. in 20 mM HEPES (pH 7.5), 300 mM NaCl, 2 mM MgCl2. Liposome binding assays were performed as described previously (www.endocytosis.org). Multiple turnover ATPase assays were performed in 20 mM HEPES (pH 7.5), 135 mM NaCl, 15 mM KCl, 1 mM MgCl2 at 30° C. with 10 μM EHD2 (or mutants) as enzyme and 100 μM ATP as substrate, in the absence or presence of 1 mg/ml Folch liposomes (Sigma-Aldrich).
Reactions were started by the addition of the protein to the final reaction mix and nucleotide hydrolysis was followed using standard HPLC measurement^27. Initial rates were determined by applying a linear fit to data points up to 40% nucleotide hydrolysis. For electron microscopic studies, 2.5 μM EHD2 in 20 mM HEPES (pH 7.5), 150 mM NaCl, 1 mM MgCl2 was incubated for 15 min at 25° C. in the presence of 1 mM nucleotide and 0.05 mg/ml (final concentration) of the indicated liposomes. Samples were spotted on carbon-coated copper grids (Canemco and Marivac) and negatively stained with 2% uranyl acetate.
We next monitored the effect of membrane-binding on the ATPase activity of. EHD2 under multiple-turnover conditions (10-fold excess of ATP over EHD2), in the presence and absence of Folch liposoines (FIG. 1f). The intrinsic/background ATPase activity is extremely slow (kobs=0.7 h^−1) but is stimulated 8-fold in the presence of Folch or PS liposomes (kobs=5.6 h^−1).

EHD2 [2] = target: T1, EHD2; test: ITC nucleotide binding to EHD2; settings: ITC at 10° C.
Description: as §1, §2
Mouse full-length EHD2 was expressed in bacteria and purified to homogeneity (FIG. 5). The purified protein was nucleotide-free as judged by HPLC analysis. […] It was previously reported that EHDs—despite having a predicted G-domain—bind to adenine nucleotides^15. […] We still refer to this domain as a G-domain because the sequence and fold (see below) are clearly similar to other G-domains. […] Using synthetic liposomes containing various different phosphatidyl-inositols (PI) (FIG. 1c) we observed best binding to liposomes containing PI(4,5)bisphosphate (PIP2).

HeLa cells = test: Over-expression of EGFP-tagged EHD2 and mutants in HeLa cells (confocal / live imaging); type: cell-based; settings: 24 h after transfection, fixed
Description: as §1
Nucleotide hydrolysis was measured as described in FIG. 1f. In vitro tubulation activity of PS liposomes was analysed as described in FIG. 1d. f, EGFP-tagged mutants were over-expressed in HeLa cells. […] For each construct, three independent experiments with ≈50 cells/experiments were analysed.
Ultracentrifugation. Sedimentation velocity experiments were performed in a Beckman Optima XLA ultracentrifuge, using an An-60Ti rotor. Centrifugation was at 50,000 rev×min and 5° C. at an EHD2 concentration of 15 μM, with scans as fast as possible (˜1.5 min intervals). The data were analysed using DCDT+ v.2^44,45, with the partial specific volume for the protein (from the amino acid composition) and solvent density and viscosity calculated using Sednterp^46. Selected scans (at equal, ˜15 min intervals), and of g(s20,w) (the amount of material sedimenting between s20,w and (s20,w+δs)) and also the residuals for fitting the data with DCDT+, were plotted with the program profit v.5.6.7 (Quantum soft, Switzerland). Cell biology. N-terminal EGFP-tagged EHD2 and all mutants were over-expressed in HeLa cells from the pEGFP-C3 vector (Clontech). HeLa cells were grown as per ECACC guidelines with 10% fetal bovine serum and transfected using Genejuice (Novagen) for transient protein expression. 24 h after transfection, cells were fixed for 10 min at 37° C. in 3% paraformaldehyde and mounted. All confocal images were taken sequentially using a BioRad Radiance system and LaserSharp software (Biorad). For real-time microscopy, transfected cells on glass-bottom Petri dishes (WillCo Wells BV, Amsterdam) were washed with 25 mM HEPES (pH 7.5), 125 mM NaCl, 5 mM KCl, 10 mM D-glucose, 1 mM MgCl2, 2 mM CaCl), and epifluorescence images were taken using an Olympus IX70 microscope (Southhall, UK) and Argon laser (Melles Griot, Carlsbad, Calif.) with a Princeton instruments (Trenton, N.J.) cooled I-PentaMAX camera with MetaMorph software (Universal imaging).
EHD2 wild-type was over-expressed in HeLa cells for 24 h and imaged by EPI-fluorescence for approximately 30 min.
EHD2 T94A was over-expressed in HeLa cells for 24 h and imaged by EPI-fluorescence for approximately 30 min. […] EHD2 I157Q was over-expressed in HeLa cells for 24 h and imaged by EPI-fluorescence for approximately 30 min.

Molecule	assembly-stimulated ATP hydrolysis (Q8BH64)	distribution of EGFP-tagged protein over-expressed in HeLa cells (HeLa cells)	further results
Nc1nc2c(ncn2[C@@H]2O[C@H](COP(=O)(O)OP(=O)(O)OP(=O)(O)O)[C@@H](O)[C@H]2O)c(=O)[nH]1 [GTP, reference compound]			GTP hydrolysis by EHD2 (in words) (EHD2 [1]; presence or absence of Folch liposomes): not stimulated; also recorded: not hydrolysed
Nc1ncnc2c1ncn2[C@@H]1O[C@H](COP(=O)(O)OP(=O)(O)O)[C@@H](O)[C@H]1O [ADP]			n (fitted ITC value), nucleotide binding to EHD2 (EHD2 [2]): 0.9; Kd (EHD2 [2]; 20 mM HEPES (pH 7.5), 300 mM NaCl, 2 mM MgCl2, read-out: affinity to EHD2 determined by ITC): 50 µM and ~50 µM
Nc1nc2c(ncn2[C@@H]2O[C@H](COP(=O)(O)OP(=O)(O)OP(O)(O)=S)[C@@H](O)[C@H]2O)c(=O)[nH]1 [GTP-γ-S]			affinity to EHD2 determined by ITC (EHD2 [2]; 20 mM HEPES (pH 7.5), 300 mM NaCl, 2 mM MgCl2): No binding signal was observed
B1	all mutants showed reduced or completely abolished assembly-stimulated ATP hydrolysis		
B2	all mutants showed reduced or completely abolished assembly-stimulated ATP hydrolysis		
B3		completely cytoplasmic distribution	
B4	all mutants showed reduced or completely abolished assembly-stimulated ATP hydrolysis		nucleotide hydrolysis (basal and Folch-stimulated ATPase) (Q8BH64): mutant R167E (in Switch II) showed an increased basal ATPase activity which was not further stimulated by Folch liposomes; intrinsic/basal ATPase activity (in words) (EHD2 [1]; absence of membranes): increased basal ATPase activity; membrane-stimulated ATPase activity (in words) (EHD2 [1]; presence of Folch liposomes): not further stimulated by Folch liposomes
B5	all mutants showed reduced or completely abolished assembly-stimulated ATP hydrolysis		
B6		completely cytoplasmic distribution	
B7		completely cytoplasmic distribution	
